According to article PMC9896810, “Crk proteins activate the Rap1 guanine nucleotide exchange factor C3G by segregated adaptor-dependent and -independent mechanisms” (Cell Communication and Signaling : CCS, 2023):

How the values were obtained:
C3G-APAA = biological target: T1, C3G-APAA (human, UniProt Q13905-1 4-1077, P283A | P284A | L286 | P287 | P289A | P540A | P541A | L543A | P544A | K546A | …); test: ITC; single-PRM mutant of C3G in the cell titrated with CrkL or CrkL-SH3N, 25 °C, 300 mM NaCl, pH 7.5; SEDPHAT, 1:1 heteroassociation model; N is the competent fraction of C3G; details: both partners purified
T1 construct: human C3G isoform a, residues 4-1077; only P2 kept, P1, P3 and P4 mutated to Ala; source: E. coli BL21 (DE3), purified (IMAC, TEV digestion, reversed IMAC, SEC); not shown: His, N-terminal, cleaved; Halo, N-terminal, cleaved
T1 sequence (looked up): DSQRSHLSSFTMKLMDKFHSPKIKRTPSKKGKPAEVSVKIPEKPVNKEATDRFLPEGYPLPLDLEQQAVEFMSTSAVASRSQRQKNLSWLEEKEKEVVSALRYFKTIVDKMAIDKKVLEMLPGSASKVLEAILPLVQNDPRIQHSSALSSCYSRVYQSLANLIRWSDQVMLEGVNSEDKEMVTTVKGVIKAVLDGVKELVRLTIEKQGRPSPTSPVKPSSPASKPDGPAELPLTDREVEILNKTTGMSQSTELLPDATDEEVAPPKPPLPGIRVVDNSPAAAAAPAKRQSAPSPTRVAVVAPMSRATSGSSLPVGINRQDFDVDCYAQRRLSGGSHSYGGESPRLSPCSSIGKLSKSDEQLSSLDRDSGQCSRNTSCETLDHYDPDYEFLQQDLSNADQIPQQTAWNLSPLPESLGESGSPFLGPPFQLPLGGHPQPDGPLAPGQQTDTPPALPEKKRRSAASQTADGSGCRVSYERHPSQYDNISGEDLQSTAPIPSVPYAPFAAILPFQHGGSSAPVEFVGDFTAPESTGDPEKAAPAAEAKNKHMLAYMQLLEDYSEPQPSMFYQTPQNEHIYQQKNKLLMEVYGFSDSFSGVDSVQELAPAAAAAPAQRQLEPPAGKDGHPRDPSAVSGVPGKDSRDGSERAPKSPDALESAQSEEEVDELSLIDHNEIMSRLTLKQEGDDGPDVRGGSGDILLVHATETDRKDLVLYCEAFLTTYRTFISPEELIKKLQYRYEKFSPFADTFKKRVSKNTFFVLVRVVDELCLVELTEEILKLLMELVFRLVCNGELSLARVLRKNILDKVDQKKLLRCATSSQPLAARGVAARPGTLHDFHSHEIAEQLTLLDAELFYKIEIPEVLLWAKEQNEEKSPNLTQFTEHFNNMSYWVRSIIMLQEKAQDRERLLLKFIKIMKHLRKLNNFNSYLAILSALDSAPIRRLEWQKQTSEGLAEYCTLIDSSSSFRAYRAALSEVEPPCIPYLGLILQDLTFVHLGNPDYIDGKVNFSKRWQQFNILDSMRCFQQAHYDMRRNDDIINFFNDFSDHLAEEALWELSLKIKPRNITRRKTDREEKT

C3G-AAPA = biological target: T2, C3G-AAPA (human, UniProt Q13905-1 4-1077, P283A | P284A | L286 | P287 | P289A | P453A | P454A | L456A | P457A | K459A | …); test: as above; details: both partners purified
T2 construct: human C3G isoform a, residues 4-1077; only P3 kept, P1, P2 and P4 mutated to Ala; source: E. coli BL21 (DE3), purified (IMAC, TEV digestion, reversed IMAC, SEC); not shown: His, N-terminal, cleaved; Halo, N-terminal, cleaved
T2 sequence (looked up): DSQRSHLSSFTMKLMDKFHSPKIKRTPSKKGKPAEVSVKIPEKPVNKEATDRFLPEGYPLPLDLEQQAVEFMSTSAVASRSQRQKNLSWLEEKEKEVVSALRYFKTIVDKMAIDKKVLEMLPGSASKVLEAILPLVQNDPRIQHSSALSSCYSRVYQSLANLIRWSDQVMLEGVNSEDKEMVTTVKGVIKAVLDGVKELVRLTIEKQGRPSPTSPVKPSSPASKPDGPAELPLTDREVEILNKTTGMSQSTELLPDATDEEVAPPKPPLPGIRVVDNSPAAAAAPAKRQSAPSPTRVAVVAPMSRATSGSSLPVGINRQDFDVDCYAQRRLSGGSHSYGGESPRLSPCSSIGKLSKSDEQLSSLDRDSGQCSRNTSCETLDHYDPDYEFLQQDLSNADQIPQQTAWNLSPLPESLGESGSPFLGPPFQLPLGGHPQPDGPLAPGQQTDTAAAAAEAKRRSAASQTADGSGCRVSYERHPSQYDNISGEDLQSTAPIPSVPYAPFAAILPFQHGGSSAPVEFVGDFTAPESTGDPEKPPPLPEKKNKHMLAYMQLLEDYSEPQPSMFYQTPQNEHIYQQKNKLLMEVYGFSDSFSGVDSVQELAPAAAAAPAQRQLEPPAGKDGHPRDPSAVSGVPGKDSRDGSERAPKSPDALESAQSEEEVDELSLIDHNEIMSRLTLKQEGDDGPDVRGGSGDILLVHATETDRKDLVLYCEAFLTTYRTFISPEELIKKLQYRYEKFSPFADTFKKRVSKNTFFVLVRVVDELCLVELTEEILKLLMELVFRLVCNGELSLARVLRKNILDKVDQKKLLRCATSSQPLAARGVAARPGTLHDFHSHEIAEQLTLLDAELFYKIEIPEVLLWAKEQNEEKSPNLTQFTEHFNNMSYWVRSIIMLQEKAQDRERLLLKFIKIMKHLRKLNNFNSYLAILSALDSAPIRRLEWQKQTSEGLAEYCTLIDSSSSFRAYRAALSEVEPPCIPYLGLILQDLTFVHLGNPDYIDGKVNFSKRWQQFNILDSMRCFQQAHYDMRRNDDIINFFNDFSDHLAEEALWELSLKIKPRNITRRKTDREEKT

- Kd (C3G-APAA): 1200 nM
- stoichiometry N (C3G-APAA): 0.78
- Kd (C3G-AAPA): 2100 nM
B1: CrkL (full-length) (natural protein, human, UniProt P46109 1-303, looked up)
chain: MSSARFDSSDRSAWYMGPVSRQEAQTRLQGQRHGMFLVRDSSTCPGDYVLSVSENSRVSHYIINSLPNRRFKIGDQEFDHLPALLEFYKIHYLDTTTLIEPAPRYPSPPMGSVSAPNLPTAEDNLEYVRTLYDFPGNDAEDLPFKKGEILVIIEKPEEQWWSARNKDGRVGMIPVPYVEKLVRSSPHGKHGNRNSNSYGIPEPAHAYAQPQTTTPLPAVSGSPGAAITPLPSTQNGPVFAKAIQKRVPCAYDKTALALEVGDIVKVTRMNINGQWEGEVNGRKGLFPFTHVKIFDPQNPDENE
notes: human CrkL, residues 1-303, in pETEV15b; also called Crk-like protein; source: E. coli BL21 (DE3), purified (IMAC, TEV digestion, SEC); not shown: His, N-terminal, cleaved
